± gives the standard error. This sample holds only a part of the variants without activity.
B1: glmS ribozyme (parent)
chain: AUAAAAGCGCCAGAACUACAGAAAUGUAGUUGACGAGGAGGAGGUUUAUCGAAUUUUCGGCGGAUGCCUCCAAA

Experiments:
Details in all cases: with glucosamine-6-phosphate
[1] = variants of: B1; test: self-cleavage kobs at 160 uM GlcN6P; higher = faster cleavage; RNA array
Outline: (§1)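 Glucosamine-6-phosphate, from 40 μM to 10 mM in HEPES/KCl/Mg(OAc)2 buffer, was flowed over sequenced MiSeq chips carrying barcoded ribozyme variants transcribed in situ by E. coli RNA polymerase. A hybridised Cy3 probe tracked the variants at 37 °C as tiles were imaged over ~14 h. kobs, kcat and KM were obtained by fitting normalised per-tile medians to exponential decays and then applying weighted Michaelis–Menten fits across concentrations.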

[2] = variants of: B1; test: self-cleavage kobs at 640 uM GlcN6P; higher = faster cleavage; RNA array
Outline: as §1

[3] = variants of: B1; test: self-cleavage kobs at 2500 uM GlcN6P; higher = faster cleavage; RNA array
Outline: as §1

[4] = variants of: B1; test: self-cleavage kobs at 10000 uM GlcN6P; higher = faster cleavage; RNA array
Outline: as §1

Variant | self-cleavage kobs at 160 uM GlcN6P [1] [s⁻¹] | self-cleavage kobs at 640 uM GlcN6P [2] [s⁻¹] | self-cleavage kobs at 2500 uM GlcN6P [3] [s⁻¹] | self-cleavage kobs at 10000 uM GlcN6P [4] [s⁻¹]
C8A A53U U55C C58U U69C | < 1e-05 |  |  | 
G7U G13C A39G | < 1e-05 | < 1e-05 | < 1e-05 | 
C8G G21U C34A A64G | < 1e-05 | < 1e-05 | < 1e-05 | 
A6U C8A C16A | < 1e-05 |  |  | 
G7U U49G | < 1e-05 | < 1e-05 | < 1e-05 | < 1e-05
G9A C61G | < 1e-05 | < 1e-05 |  | 
G7U A12G U45C U46G C71U | < 1e-05 |  | < 1e-05 | 
C8G G37A | < 1e-05 | < 1e-05 | < 1e-05 | 
A6U C34A G63C | < 1e-05 | < 1e-05 | < 1e-05 | 
C8G C50A | < 1e-05 |  | < 1e-05 | < 1e-05
C11A C34U G60U C71A | < 1e-05 |  | < 1e-05 | 
G7U U30G C34G | < 1e-05 |  | < 1e-05 | < 1e-05
C10A G41C U46G C68U | < 1e-05 | < 1e-05 | < 1e-05 | 
C10A C34G A36G A39C U65A | < 1e-05 |  | < 1e-05 | 
C10U U49G | < 1e-05 | < 1e-05 |  | 
C8A C34U G40A A52U | < 1e-05 | < 1e-05 | < 1e-05 | < 1e-05
C8U C50G G63U | 0.000108 ± 2.8e-05 |  | 5.35e-05 ± 2.6e-05 | 
G7A G29U | < 1e-05 | < 1e-05 |  | 
C8U C34G G41A | < 1e-05 | < 1e-05 |  | 
G7C A33C G59A | < 1e-05 |  |  | 
C10G C34G G38A U47A | < 1e-05 |  |  | 
A6U G43U U57A | < 1e-05 | < 1e-05 | < 1e-05 | 
C8G G9U G29C G32C A52C | < 1e-05 |  | < 1e-05 | 
C8A A39G A52U | < 1e-05 | < 1e-05 | < 1e-05 | 
C10G G63C U65G | < 1e-05 |  | < 1e-05 | 
C8A C10U U31A | < 1e-05 |  |  | < 1e-05

Variant | self-cleavage kobs at 160 uM GlcN6P [1] [s⁻¹] | self-cleavage kobs at 640 uM GlcN6P [2] [s⁻¹] | self-cleavage kobs at 2500 uM GlcN6P [3] [s⁻¹] | self-cleavage kobs at 10000 uM GlcN6P [4] [s⁻¹]
C10U G51A U55C | < 1e-05 |  | < 1e-05 | 
C8A G29C C50U | < 1e-05 |  | < 1e-05 | 
G9A G32C C67U | < 1e-05 | < 1e-05 |  | 
C10G U31A U49G | < 1e-05 |  |  | 
C10U A39U C67G | < 1e-05 | < 1e-05 |  | 
C10A U54G C71G | 9.72e-05 ± 3.2e-05 | 0.000112 ± 5.5e-05 |  | 
G9C U30G U45A | < 1e-05 |  |  | 
G7C A53C | < 1e-05 | < 1e-05 | < 1e-05 | 
C11G G63U | < 1e-05 |  | < 1e-05 | < 1e-05
C8U G13U G43A C61G | < 1e-05 |  |  | 
G7A A48U C71U | < 1e-05 | < 1e-05 | < 1e-05 | 
G9A U46G U57A | < 1e-05 | < 1e-05 | < 1e-05 | 
G9C C34G C61G | < 1e-05 |  | < 1e-05 | < 1e-05
C8G G63A C70G | < 1e-05 | < 1e-05 | < 1e-05 | 
C10G A12U U31A A33U G63A | < 1e-05 |  |  | 
G9C G29A G51U | < 1e-05 | < 1e-05 | < 1e-05 | 
C8G G60A C61A | < 1e-05 |  | < 1e-05 | < 1e-05
C8U U49C | < 1e-05 | < 1e-05 | < 1e-05 | < 1e-05
C8U C16G G51U | < 1e-05 | < 1e-05 | < 1e-05 | 
C11G A15C A33C C34G U55C | < 1e-05 | < 1e-05 |  | 
C10G G38U G41U U49C C50U C70A | < 1e-05 |  |  | < 1e-05
C8U G37C A39G | < 1e-05 | < 1e-05 | < 1e-05 | < 1e-05
G9U G40U U46G G62C | < 1e-05 | < 1e-05 | < 1e-05 | 
G9A U30G G37U | < 1e-05 |  |  | 
G7C C10G | < 1e-05 | < 1e-05 | < 1e-05 | 
C10G G32C A52U | < 1e-05 | < 1e-05 | < 1e-05 | 
